Experimental data published in US10703792B2, “Insulin analogues with selective signaling properties and reduced mitogenicity” (Case Western Reserve University, priority 2015, dated 2020).

Tests used:
IR = IR (Homo sapiens, UniProt P06213); conditions: known in the art; cited from earlier work
Sprague-Dawley rats = conditions: one year of treatment; cited from earlier work
[1] = test system: human breast-cancer cell line MCF-7; assay: MCF-7 colony formation in soft agar (mitogenicity); format: cell-based; conditions: 100 nM protein, 3 weeks, relative to basal; preliminary assays
Description: Assay for MCF-7 Colony Formation in Soft Agar.
In our preliminary assays MCF-7 cells (1.5×10^3 cells in 0.75 ml, obtained from ATCC cat #HTB-22), were mixed with an equal volume Bacto-agar at 42° C. This 0.3% agar suspension was poured over a 1.5-ml base of 0.6% agar in 12-well plates and overlaid with basal growth medium with (or without) insulin or insulin analogues at a protein concentration of 100 nM, which was replenished 3× per week. Plates were incubated at 37° C. in a CO2 tissue-culture incubator for 3 weeks, at which time colonies were stained with crystal violet and counted under an inverted microscope. A positive control was provided by IGF-I (not shown) and a negative control by medium lacking insulin or an insulin analogue (“basal” in FIG. 6).

[2] = test system: male Lewis rats rendered diabetic by streptozotocin; conditions: statement on a current insulin product, not tested here; cited from earlier work

Asp^B10-insulin: insulin analogue with His^B10 substituted by Asp, known in the art
Enhancement of affinity for the IR relative to insulin (IR): twofold | Mammary tumors on chronic treatment (Sprague-Dawley rats): excess mammary tumors

human proinsulin: wild-type human proinsulin (SEQ ID NO: 1)
Mitogenicity: MCF-7 colony formation in soft agar [1]: negligible activities

insulin detemir
Nanomoles needed for equivalent therapeutic effects [2]: threefold
